Square brackets hold non-standard residues; d marks the D form. 1Nal = N[C@@H](Cc1cccc2ccccc12)C(=O)O; hArg = N=C(N)NCCCC[C@H](N)C(=O)O; Tic = O=C(O)[C@@H]1Cc2ccccc2CN1; Cit = NC(=O)NCCC[C@H](N)C(=O)O; 3IPA = not defined here; Nva = CCC[C@H](N)C(=O)O; Aib = CC(C)(N)C(=O)O
Target: T1, CGRP1 receptor (CRLR/RAMP1 complex) of human neuroblastoma SK-N-MC cells (human, UniProt Q16602 23-461; O60894 27-148)
Assay: cell-based or functional assay

T1 sequence (Q16602 23-461, chain 1 of 2): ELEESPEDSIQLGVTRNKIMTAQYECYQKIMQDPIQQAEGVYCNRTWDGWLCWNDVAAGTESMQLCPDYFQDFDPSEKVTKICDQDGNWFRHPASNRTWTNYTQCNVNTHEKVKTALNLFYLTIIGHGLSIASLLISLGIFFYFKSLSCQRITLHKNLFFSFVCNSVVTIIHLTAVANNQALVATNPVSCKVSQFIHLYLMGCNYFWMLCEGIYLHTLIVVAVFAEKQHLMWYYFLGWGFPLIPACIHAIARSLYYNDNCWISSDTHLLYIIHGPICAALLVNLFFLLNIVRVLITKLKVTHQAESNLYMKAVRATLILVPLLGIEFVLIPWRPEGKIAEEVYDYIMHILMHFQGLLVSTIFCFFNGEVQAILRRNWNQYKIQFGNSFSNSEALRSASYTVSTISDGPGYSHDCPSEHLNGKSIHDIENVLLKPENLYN
T1 sequence (O60894 27-148, chain 2 of 2): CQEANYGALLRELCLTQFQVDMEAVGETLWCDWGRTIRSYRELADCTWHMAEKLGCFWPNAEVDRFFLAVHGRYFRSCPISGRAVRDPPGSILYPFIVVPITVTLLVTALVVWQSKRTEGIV

Peptide IC50 [nM] | PEG-peptide IC50 [nM] | Binder
1.63 | – | WVTHXLAGLLSXSGGVVRKNFVPTDVGPFAF (Ac-WVTH[NMeArg]LAGLLS[NMeArg]SGGVVRKNFVPTDVGPFAF-NH2) [SEQ ID NO 875]
4.96 | – | WVTHXLAGLLSXSGGVVXKNFVPTDVGPFAF (Ac-WVTH[hCit]LAGLLS[hCit]SGGVV[hArg]KNFVPTDVGPFAF-NH2) [SEQ ID NO 886]
1.81 | – | WVTHXLAGLLSXSGGVVRKNFVXTDVGPFAF (Ac-WVTH[Cit]LAGLLS[Cit]SGGVVRKNFV[Hyp]TDVGPFAF-NH2) [SEQ ID NO 877]
– | 2.06 | WVTHXLAGLLSXSGGVVXKNFVPTDVGPFAF (Ac-WVTH[Cit]LAGLLS[hArg]SGGVV[hArg]KNFVPTDVGPFAF-NH2; PEG-conjugated (Table 2C: in most cases at Lys^25)) [PEG-peptide of SEQ ID NO 880]
– | 7.42 | Ac-WVTH[Cit]LAGLLSQSGGVV[hArg]KNFVPTDVGPFAF-NH2 (also: PEG-conjugated, in most cases at Lys25) [PEG-peptide of SEQ ID NO 883]
– | 11 | Ac-[1Nal]VTH[Cit]LAGLLS[Cit]SGGVVRKNFVPTDVGPFAF-NH2 (also: PEG-conjugated, in most cases at Lys25) [PEG-peptide of SEQ ID NO 872]
– | 8.87 | Ac-WVTHQLAGLLS[Cit]SGGVV[hArg]KNFVPTDVGPFAF-NH2 (also: PEG-conjugated, in most cases at Lys25) [PEG-peptide of SEQ ID NO 884]
1.42 | – | Ac-WVTHQLAGLLSQSGGVV[hArg]KNFVPTDVGPFAF-NH2 (SMILES CC(=O)N[C@@H](Cc1c[nH]c2ccccc12)C(=O)N[C@H](C(=O)N[C@H](C(=O)N[C@@H](Cc1c[nH]cn1)C(=O)N[C@@H](CCC(N)=O)C(=O)N[C@@H](CC(C)C)C(=O)N[C@@H](C)C(=O)NCC(=O)N[C@@H](CC(C)C)C(=O)N[C@@H](CC(C)C)C(=O)N[C@@H](CO)C(=O)N[C@@H](CCC(N)=O)C(=O)N[C@@H](CO)C(=O)NCC(=O)NCC(=O)N[C@H](C(=O)N[C@H](C(=O)N[C@@H](CCCCNC(=N)N)C(=O)N[C@@H](CCCCN)C(=O)N[C@@H](CC(N)=O)C(=O)N[C@@H](Cc1ccccc1)C(=O)N[C@H](C(=O)N1CCC[C@H]1C(=O)N[C@H](C(=O)N[C@@H](CC(=O)O)C(=O)N[C@H](C(=O)NCC(=O)N1CCC[C@H]1C(=O)N[C@@H](Cc1ccccc1)C(=O)N[C@@H](C)C(=O)N[C@@H](Cc1ccccc1)C(N)=O)C(C)C)[C@@H](C)O)C(C)C)C(C)C)C(C)C)[C@@H](C)O)C(C)C) [SEQ ID NO 885]
2.33 | – | Ac-WVTHRLAGLLSRSGGVVRKNFV[Tic]TDVGPFAF-NH2 (SMILES CC(=O)N[C@@H](Cc1c[nH]c2ccccc12)C(=O)N[C@H](C(=O)N[C@H](C(=O)N[C@@H](Cc1c[nH]cn1)C(=O)N[C@@H](CCCNC(=N)N)C(=O)N[C@@H](CC(C)C)C(=O)N[C@@H](C)C(=O)NCC(=O)N[C@@H](CC(C)C)C(=O)N[C@@H](CC(C)C)C(=O)N[C@@H](CO)C(=O)N[C@@H](CCCNC(=N)N)C(=O)N[C@@H](CO)C(=O)NCC(=O)NCC(=O)N[C@H](C(=O)N[C@H](C(=O)N[C@@H](CCCNC(=N)N)C(=O)N[C@@H](CCCCN)C(=O)N[C@@H](CC(N)=O)C(=O)N[C@@H](Cc1ccccc1)C(=O)N[C@H](C(=O)N1Cc2ccccc2C[C@H]1C(=O)N[C@H](C(=O)N[C@@H](CC(=O)O)C(=O)N[C@H](C(=O)NCC(=O)N1CCC[C@H]1C(=O)N[C@@H](Cc1ccccc1)C(=O)N[C@@H](C)C(=O)N[C@@H](Cc1ccccc1)C(N)=O)C(C)C)[C@@H](C)O)C(C)C)C(C)C)C(C)C)[C@@H](C)O)C(C)C) [SEQ ID NO 876]
63 | – | Ac-WVTH[Cit][Nva]AG[Nva][Nva]T[Cit]SGGVVRKNFVPTDVGPFAF-NH2 (SMILES CCC[C@H](NC(=O)CNC(=O)[C@H](C)NC(=O)[C@H](CCC)NC(=O)[C@H](CCCNC(N)=O)NC(=O)[C@H](Cc1c[nH]cn1)NC(=O)[C@@H](NC(=O)[C@@H](NC(=O)[C@H](Cc1c[nH]c2ccccc12)NC(C)=O)C(C)C)[C@@H](C)O)C(=O)N[C@@H](CCC)C(=O)N[C@H](C(=O)N[C@@H](CCCNC(N)=O)C(=O)N[C@@H](CO)C(=O)NCC(=O)NCC(=O)N[C@H](C(=O)N[C@H](C(=O)N[C@@H](CCCNC(=N)N)C(=O)N[C@@H](CCCCN)C(=O)N[C@@H](CC(N)=O)C(=O)N[C@@H](Cc1ccccc1)C(=O)N[C@H](C(=O)N1CCC[C@H]1C(=O)N[C@H](C(=O)N[C@@H](CC(=O)O)C(=O)N[C@H](C(=O)NCC(=O)N1CCC[C@H]1C(=O)N[C@@H](Cc1ccccc1)C(=O)N[C@@H](C)C(=O)N[C@@H](Cc1ccccc1)C(N)=O)C(C)C)[C@@H](C)O)C(C)C)C(C)C)C(C)C)[C@@H](C)O) [SEQ ID NO 873]
– | 12.4 | Ac-WVTHQLAGLLSQSGGVV[hArg]KNFVPTDVGPFAF-NH2 (also: PEG-conjugated, in most cases at Lys25) [PEG-peptide of SEQ ID NO 885]
4.2 | – | Ac-WVTHRLAGLLSRSGGVVRKNFV[Aib]TDVGPFAF-NH2 (SMILES CC(=O)N[C@@H](Cc1c[nH]c2ccccc12)C(=O)N[C@H](C(=O)N[C@H](C(=O)N[C@@H](Cc1c[nH]cn1)C(=O)N[C@@H](CCCNC(=N)N)C(=O)N[C@@H](CC(C)C)C(=O)N[C@@H](C)C(=O)NCC(=O)N[C@@H](CC(C)C)C(=O)N[C@@H](CC(C)C)C(=O)N[C@@H](CO)C(=O)N[C@@H](CCCNC(=N)N)C(=O)N[C@@H](CO)C(=O)NCC(=O)NCC(=O)N[C@H](C(=O)N[C@H](C(=O)N[C@@H](CCCNC(=N)N)C(=O)N[C@@H](CCCCN)C(=O)N[C@@H](CC(N)=O)C(=O)N[C@@H](Cc1ccccc1)C(=O)N[C@H](C(=O)NC(C)(C)C(=O)N[C@H](C(=O)N[C@@H](CC(=O)O)C(=O)N[C@H](C(=O)NCC(=O)N1CCC[C@H]1C(=O)N[C@@H](Cc1ccccc1)C(=O)N[C@@H](C)C(=O)N[C@@H](Cc1ccccc1)C(N)=O)C(C)C)[C@@H](C)O)C(C)C)C(C)C)C(C)C)[C@@H](C)O)C(C)C) [SEQ ID NO 879]
2.92 | – | WVTHRXAGLLSRXGGVVRKNFVPTDVGPFAF (Ac-WVTHR[NMeLeu]AGLLSR[NMeSer]GGVVRKNFVPTDVGPFAF-NH2) [SEQ ID NO 874]
– | 208 | WVTHRXAGLLSRXGGVVRKNFVPTDVGPFAF (Ac-WVTHR[NMeLeu]AGLLSR[NMeSer]GGVVRKNFVPTDVGPFAF-NH2; PEG-conjugated (Table 2C: in most cases at Lys^25)) [PEG-peptide of SEQ ID NO 874]

Target: T1, CGRP1 receptor (CRLR/RAMP1 complex) of …
Assay: cell-based or functional assay
Remark: another data set of the same source

IC50 [nM] | Binder
23.8 | Ac-WVTHRLAGLLSRSGGVVRC(20 kDa branched MeO‑PEG2)NFVPTDVGPFAF-NH2 [SEQ ID NO 768]
2.52 | Ac-WVTHRLAGLLSRSGGVVRC(5 kDa MeO‑PEG)NFVPTDVGPFAF-NH2 [SEQ ID NO 765]
4.69 | Ac-WVTHRLAGLLSQSGGVVRC(20 kDa MeO‑PEG)NFVPTDVGPFAF-NH2 [SEQ ID NO 775]
0.17 | Ac-WVTHRLAGLLSRSGGVVRC(20 kDa branched MeO‑PEG2)NFVPTDVGPFAF-NH2 [SEQ ID NO 770]
0.59 | Ac-WVTHRLAGLLS[dR]SGGVVRCNFVPTDVGPFAF-NH2 (SMILES CC(=O)N[C@@H](Cc1c[nH]c2ccccc12)C(=O)N[C@H](C(=O)N[C@H](C(=O)N[C@@H](Cc1c[nH]cn1)C(=O)N[C@@H](CCCNC(=N)N)C(=O)N[C@@H](CC(C)C)C(=O)N[C@@H](C)C(=O)NCC(=O)N[C@@H](CC(C)C)C(=O)N[C@@H](CC(C)C)C(=O)N[C@@H](CO)C(=O)N[C@H](CCCNC(=N)N)C(=O)N[C@@H](CO)C(=O)NCC(=O)NCC(=O)N[C@H](C(=O)N[C@H](C(=O)N[C@@H](CCCNC(=N)N)C(=O)N[C@@H](CS)C(=O)N[C@@H](CC(N)=O)C(=O)N[C@@H](Cc1ccccc1)C(=O)N[C@H](C(=O)N1CCC[C@H]1C(=O)N[C@H](C(=O)N[C@@H](CC(=O)O)C(=O)N[C@H](C(=O)NCC(=O)N1CCC[C@H]1C(=O)N[C@@H](Cc1ccccc1)C(=O)N[C@@H](C)C(=O)N[C@@H](Cc1ccccc1)C(N)=O)C(C)C)[C@@H](C)O)C(C)C)C(C)C)C(C)C)[C@@H](C)O)C(C)C) [SEQ ID NO 776]
0.35 | {Ac-3IPA}-VTHRLAGLLSRSGGVVRCNFVPTDVGPFAF-NH2 (reading uncertain; also: places 3IPA at position 1, printed as Ac-[3IPA]-VTHRLAGLLSRSGGVVRCNFVPTDVGPFAF-amide) [SEQ ID NO 778]
33.4 | Ac-WVTHRLAGLLSRSGGVVRC(40 kDa branched MeO‑PEG2)NFVPTDVGPFAF-NH2 [SEQ ID NO 769]
0.91 | Ac-WVTHRLAGLLSRSGGVVRCNFVPTDVGPFAF-NH2 [SEQ ID NO 764]
2.75 | Ac-WVTHRLAGLLSASGGVVRCNFVPTDVGPFAF-NH2 [SEQ ID NO 772]
19.4 | Ac-WVTHRLAGLLS[dR]SGGVVRC(MeO‑PEG 20 kDa)NFVPTDVGPFAF-NH2 [SEQ ID NO 777]
0.3 | Ac-WVTHRLAGLLSRSGGVVRC(20 kDa NEM‑PEG)NFVPTDVGPFAF-NH2 [SEQ ID NO 771]
7.86 | Ac-WVTHRLAGLLSRSGGVVRC(30 kDa MeO‑PEG)NFVPTDVGPFAF-NH2 [SEQ ID NO 767]
6.2 | Ac-WVTHRLAGLLSASGGVVRC(20 kDa MeO‑PEG)NFVPTDVGPFAF-NH2 [SEQ ID NO 773]
